T1: cynomolgus monkey IL-5Rα, recombinant extracellular domain (cynomolgus monkey, UniProt C3VEW9 21-342)
T1 construct: extracellular domain; also called macaque IL-5Ra; cynomolgus monkey antigen (IL-5Rα)
T1 sequence: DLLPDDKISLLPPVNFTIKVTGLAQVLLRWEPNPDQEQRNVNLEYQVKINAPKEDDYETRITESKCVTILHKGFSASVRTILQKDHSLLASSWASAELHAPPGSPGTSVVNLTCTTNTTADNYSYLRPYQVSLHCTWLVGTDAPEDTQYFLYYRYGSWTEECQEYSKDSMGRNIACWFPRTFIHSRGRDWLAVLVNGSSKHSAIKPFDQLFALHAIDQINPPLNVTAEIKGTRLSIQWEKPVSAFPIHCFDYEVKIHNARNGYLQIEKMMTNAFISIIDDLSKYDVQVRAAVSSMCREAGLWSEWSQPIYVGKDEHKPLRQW

T2: mouse IL-5Rα, recombinant extracellular domain (mouse, UniProt P21183 18-339)
T2 construct: extracellular domain; also called animal IL-5Rα
T2 sequence (looked up): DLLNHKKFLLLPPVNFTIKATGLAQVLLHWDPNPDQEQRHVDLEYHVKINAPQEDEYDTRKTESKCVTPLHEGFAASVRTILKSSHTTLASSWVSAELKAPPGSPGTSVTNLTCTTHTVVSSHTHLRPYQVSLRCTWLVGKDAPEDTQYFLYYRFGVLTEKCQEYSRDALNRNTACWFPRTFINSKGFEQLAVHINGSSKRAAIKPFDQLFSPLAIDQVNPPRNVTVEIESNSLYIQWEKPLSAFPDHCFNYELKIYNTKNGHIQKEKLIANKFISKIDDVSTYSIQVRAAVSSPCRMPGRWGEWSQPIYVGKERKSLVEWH

T3: human IL-5Rα (interleukin 5 receptor α-chain), recombinant extracellular domain (human, UniProt Q01344 21-342)
T3 construct: extracellular domain; also called IL-5Ra; human antigen; not shown: C-terminal tag (EPEA, Fc or H6F)
T3 sequence (looked up): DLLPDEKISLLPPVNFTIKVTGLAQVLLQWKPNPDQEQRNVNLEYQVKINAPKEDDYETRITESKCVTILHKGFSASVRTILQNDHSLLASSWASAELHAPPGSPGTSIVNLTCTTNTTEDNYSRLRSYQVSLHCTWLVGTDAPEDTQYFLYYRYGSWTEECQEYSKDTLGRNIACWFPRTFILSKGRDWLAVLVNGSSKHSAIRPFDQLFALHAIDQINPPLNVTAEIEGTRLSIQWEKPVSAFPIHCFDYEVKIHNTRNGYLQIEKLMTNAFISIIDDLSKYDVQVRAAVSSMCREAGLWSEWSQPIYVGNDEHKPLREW

B1: BCD133-03-020 (antibody, human IgG1, kappa)
heavy: not shown
light: QAGLTQPPSVSAAPGQRVTISCSGSRSNIGSGYDVHWYQQVPGTAPKLLIFDDNNRPSGVPDRFSGSKSGTSASLAITGLQAEDEADYYCQSYDSSLSGHVVFGGGTKLTVLRTVAAPSVFIFPPSDEQLKSGTASVVCLLNNFYPREAKVQWKVDNALQSGNSQESVTEQDSKDSTYSLSSTLTLSKADYEKHKVYACEVTHQGLSSPVTKSFNRGEC
B2: BCD133-03-021 (antibody, human IgG1, kappa, V domains shown)
VH: QVQLQESGGGLVQPGGSLRLSCAASGFTFSNYAMSWVRQAPGKGLEWVSAINSGGKSTNYADSVKGRFTISRDNAKNTLYLQMNSLRAEDTAVYYCADYATNYGVPYFGSWGQGTMVTVSS
VL: QSVLTQPPSVSAAPGQRVTISCSGSRSNIGSGYDVHWYQQLPGTAPKLLIYDDNNRPSGVPDRFSGSKSGTSASLAITGLQAEDEADYYCQSYDSSLSGHVVFGGGTKLTVLR
B3: BCD133-03-002 (antibody, human IgG1, kappa)
heavy: not shown
light: B1 light

What follows are binders tested against T1, cynomolgus monkey IL-5Rα, recombinant … (assay: BLI (Octet RED 384), antibody immobilised on AR2G sensors, cynomolgus IL-5Rα in solution, 30 °C, 1:1 global model).
Procedure: (§1) Experimental study of binding affinity of antibodies to animal IL-5Rα antigen was performed on Forte Bio Octert RED 384. Antibodies at a concentration of 20 μg/ml were immobilized on the surface of AR2G sensors (Forte Bio) according to a standard protocol and manufacturer's instructions. Analysis was conducted at 30° C. using PBS comprising 0.1% Tween 20 and 0.1% BSA as a working buffer. After baseline recording, the sensors were immersed into wells containing antigen solution (animal IL-5Rα) for 300 seconds, where the complex was associated. Complex dissociation in buffer solution was then detected for 600 seconds.
(§2) Binding curves, after subtracting a reference signal, were analyzed using Octet Data Analysis (Version 9.0) software in accordance with the standard procedure and using 1:1 Global interaction model. Anti-IL-5Rα antibodies specifically bind to cynomolgus monkey antigen. Table B. FIG. 16,17,18.
In the case of B1, the Kd is reported as 12.2 nM.
B2 was tested, and the Kd was 16.8 nM.
With B3 the Kd was 5.53 nM.

What follows are binders tested against T2, mouse IL-5Rα, recombinant extracellular … (assay: BLI (Octet RED 384), antibody immobilised on AR2G sensors, antigen in solution).
B1: no binding.
B2: no binding.
B3: no binding.

What follows are binders tested against IL-5Rα stably expressed on CHO-IL-5R cells (assay: cell-based or functional assay).
Sequence of IL-5Rα stably expressed on CHO-IL-5R cells (Q01344 whole entry): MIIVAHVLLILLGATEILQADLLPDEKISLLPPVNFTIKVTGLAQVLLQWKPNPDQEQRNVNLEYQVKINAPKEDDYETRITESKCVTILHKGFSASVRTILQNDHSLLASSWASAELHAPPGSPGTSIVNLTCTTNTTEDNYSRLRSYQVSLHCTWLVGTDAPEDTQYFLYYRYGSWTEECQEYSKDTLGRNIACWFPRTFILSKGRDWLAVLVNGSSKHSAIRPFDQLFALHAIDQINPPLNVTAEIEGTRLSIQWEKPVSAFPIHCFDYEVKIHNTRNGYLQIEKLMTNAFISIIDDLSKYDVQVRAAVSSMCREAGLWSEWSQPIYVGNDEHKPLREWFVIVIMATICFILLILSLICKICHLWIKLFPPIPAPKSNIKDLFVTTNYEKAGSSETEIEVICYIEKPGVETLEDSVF
B1 was tested, and the “ADCC efficacy (EC50) on CHO-IL-5R cells with PBMC, relative to Benralizumab” value (“ADCC efficacy (EC50) … relative to Benralizumab” below) was 1.6 times (against Benralizumab).
In the case of B2, the “ADCC efficacy (EC50) … relative to Benralizumab” value is reported as 1.6 times (against Benralizumab).
With B3 the “ADCC efficacy (EC50) … relative to Benralizumab” value was 1.6 times (against Benralizumab).

These binders were tested against T3, human IL-5Rα (interleukin 5 receptor …) (assay: BLI (Octet RED 384), human IL-5Rα immobilised on AR2G sensors, full-length antibody in solution, 30 °C, 1:1 global model).
Procedure: as §1, with “to human” for “to animal”, “384. Human IL-5Rα” for “384. Antibodies”, “μg/ml was” for “μg/ml were”, “sensors (ForteBio)” for “sensors (Forte Bio)”, “containing antibody” for “containing antigen”, “solution” for “solution (animal IL-5Rα)”
as §2, with “human antigen with high affinity.” for “cynomolgus monkey antigen.”, “A (FIG. 11, 12, 13)” for “B. FIG. 16,17,18.”
With B1 the Kd was 0.667 nM.
For B2, the Kd was 0.0224 nM.
B3 gave a Kd of 0.527 nM.

— patent US20200291121A1 (JOINT STOCK COMPANY BIOCAD, published 2020)
